Positions count from the first letter of the chain named.
B1: Clone 20 (Fab, V domains shown)
VH: QSLEESGGRLVTPGTPLTLTCTVSGIDLSNNAISWVRQAPGKGLEYIGVIGNTGDTYYASWAKGRFTISKTSSTTVDLKMTSLTTEDTATYFCVRGPPSYSNSVKNIWGPGTLVTISS
VL: DPMLTQTPSSVSAAVGGTVTIGCQSSQSVYDKNWLSWYQQKPGQPPSRLIYDASKLESGVPSRFSGSGSGTQFTLTISGVQCDDAATYYCAGGFTGNVYAFGGGTKLEIK
notes: Rabbit/human chimeric Fab (human CH1, CK) on phage; also soluble Fab-AP
B2: Clone 17 (Fab, V domains shown)
VH: QEQLEESGGRLVTPGTPLTLTCTVSGIDLSNNAMSWVRQAPGKGLEYIGVIGNTGTTYYANWAKGRFTISKTSSATVDLKMTSLTTDDTATYFCVRGPPSYSNSVKNIWGPGTLVTVSS
VL: B1 VL with P2V, G22N, Y38L, A100T, L107V, E108V, I109V
notes: as for B1
B3: Clone 2 (Fab, V domains shown)
VH: B1 VH with L3V, D55T, T85A, E86S, I116V
VL: B1 VL with S78G
notes: as for B1
B4: Clone 10 (Fab, V domains shown)
VH: B1 VH with L3V
VL: B1 VL with A85V, K106E, L107V, E108V, I109V
notes: as for B1
B5: Clone 1 (Fab, V domains shown)
VH: QEQLKESGGRLVTPGTPLTLTCAVSGFSLDIYGMSWVRQAPGKGLEWIGIIYIEGITYYANWAKGRFTISKTSSTTLELKMTSLTTEDTAMYFCVAGVGRIWGPGTLVTVSS
VL: YVMMTQTPSSVSAAVGGTVTINCQASQSLYNNNNLAWFQQKPGQPPKRLIYPASTLASGVSSRFKGSGSGTQFTLTISDVQRDDAATYFCLGEFSCSSADCYAFGGGTEVVVK
notes: as for B1
B6: Clone 4 (Fab, V domains shown)
VH: B2 VH with T23K, M34I, T56D, N61S, A75T, D87E, V117I
VL: DPMLTQTPSSVSAAVGGTVTINCQSSQSVYNNNWLSWLQQKPGQPPNRLIYDASKLESGVPSRFSGSGSGTQFTLTISGVQRDDAATYYCAGGFTGNVYTFGGGTEVVVK
notes: as for B1
B7: Clone 18 (Fab, V domains shown)
VH: QSVEESGGRLVTPGTPLTITCTVSGFSLSSYAMSWVRQAPGKGLEWIGVIDSGGTTYYATWAKSRFTISKTQTKVALKITSPTTEDTATYFCARESYAGYDGYGHPIPYGMDPWGPGTLVTVSS
VL: DVVMTQTPSSVSAAVGGTVTINCQASQSLYNNKNLAWYQQKPGQPPKLLIYYASALASGVSSRFKGSGSGTQFTLTISGVQCDDAATYYCQGEFNCNSADCNSFGGGTEVVVK
notes: as for B1
B8: Clone 16 (Fab, V domains shown)
VH: QEQLKESGGRLVTPGTPLTLTCTASGFSLSNYYMSWVRQAPGKGLEWIGGISSRAGTWYASWAKGRFTISGTSTTMDLKITSPTTEDTATYFCARGLKIWGPGTLVTVSS
VL: DPVLTQTESPVSAAVGGTVTINCQASQSVYDDNNLAWYQQKPGQPPKRLIYPASTLASGVSSRFSGSGSGSQFTLTISDVQCDDAATYYCQGEFSCTSADCVAFGGGTEVVVK
notes: as for B1

Experiments:
[1] = target: T1, HIS-CALRdel52 (produced in E. coli); assay: QC monoclonal phage ELISA
T1 construct: also called recombinant CALRdel52 protein; CALRdel53 target protein
T1 chain: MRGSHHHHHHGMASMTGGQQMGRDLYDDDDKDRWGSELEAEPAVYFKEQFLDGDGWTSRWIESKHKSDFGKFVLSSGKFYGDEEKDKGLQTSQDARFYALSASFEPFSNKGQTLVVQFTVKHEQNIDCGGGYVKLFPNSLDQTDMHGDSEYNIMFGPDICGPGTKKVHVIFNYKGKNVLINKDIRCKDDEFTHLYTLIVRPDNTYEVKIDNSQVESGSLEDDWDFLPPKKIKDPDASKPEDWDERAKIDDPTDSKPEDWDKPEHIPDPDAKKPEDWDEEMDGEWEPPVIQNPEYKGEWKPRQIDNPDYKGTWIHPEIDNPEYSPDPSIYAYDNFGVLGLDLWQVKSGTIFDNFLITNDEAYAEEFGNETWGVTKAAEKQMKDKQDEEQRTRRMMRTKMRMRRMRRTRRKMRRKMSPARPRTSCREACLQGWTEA
Excerpt: Next, recombinant CALRdel52 protein (SEQ ID NO: 5) and the 22 amino acid CALRmut peptide (SEQ ID NO: 1) were used for selecting specific binders from the immune rabbit/human Fab library prepared above. By DNA sequencing, 15 unique Fabs were identified and specific binding to the CALRmut target peptide was confirmed by phage ELISA and by QC ELISA after soluble expression of Fab-AP (Fab-conjugated to Alkaline Phosphatase).

[2] = target: T2, 22 amino acid CALRmut-specific peptide (acetylation of the terminal amino-group; C-terminal -OH group); assay: phage ELISA; QC ELISA of soluble Fab-AP
T2 construct: also called 22aa CALRmut peptide; CALRmut target peptide
T2 peptide: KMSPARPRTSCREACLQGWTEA

Binder	phage ELISA signal (Coating: CALR) [1]	binding result [2]
B1	2.69	binds
B2	2.23	binds
B3	2.87	binds
B4	2.18	binds
B5	2.92	binds
B6	2.54	binds
B7	1.91	binds
B8	2.94	binds
